Assay results from the supplement of paper PMC9876800.

Test system: peptide library, one residue held at a place counted from the S/T acceptor
Test: relative phosphorylation of the sub-library (ratio to the mean residue at this position); higher = residue favoured
Method in brief: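 Relative sub-library phosphorylation is the ratio of each sub-library's signal to the mean residue at that position. The signal came from phosphorimaging of spots on streptavidin membranes, quantified by densitometry, after purified recombinant kinases reacted with biotinylated degenerate peptide sub-libraries in 384-well plates. Reactions held 50 μM peptide and 50 μM ATP spiked with γ-32P-ATP for 90 min under kinase-specific conditions.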

MAP3K14, construct: aa327-673, human, sequence (Q99558 327-673, looked up): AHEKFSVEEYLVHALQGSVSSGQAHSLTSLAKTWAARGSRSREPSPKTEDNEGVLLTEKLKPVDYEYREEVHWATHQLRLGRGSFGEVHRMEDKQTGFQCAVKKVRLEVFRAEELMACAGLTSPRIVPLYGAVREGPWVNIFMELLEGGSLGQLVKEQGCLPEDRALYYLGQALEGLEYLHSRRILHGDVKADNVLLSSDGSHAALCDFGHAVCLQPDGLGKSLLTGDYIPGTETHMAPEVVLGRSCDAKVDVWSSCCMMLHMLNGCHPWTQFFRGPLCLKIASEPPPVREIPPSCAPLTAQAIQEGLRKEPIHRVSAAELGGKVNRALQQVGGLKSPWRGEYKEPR
MAP3K1, construct: aa1174-end, human, sequence (Q13233 1174-1512, looked up): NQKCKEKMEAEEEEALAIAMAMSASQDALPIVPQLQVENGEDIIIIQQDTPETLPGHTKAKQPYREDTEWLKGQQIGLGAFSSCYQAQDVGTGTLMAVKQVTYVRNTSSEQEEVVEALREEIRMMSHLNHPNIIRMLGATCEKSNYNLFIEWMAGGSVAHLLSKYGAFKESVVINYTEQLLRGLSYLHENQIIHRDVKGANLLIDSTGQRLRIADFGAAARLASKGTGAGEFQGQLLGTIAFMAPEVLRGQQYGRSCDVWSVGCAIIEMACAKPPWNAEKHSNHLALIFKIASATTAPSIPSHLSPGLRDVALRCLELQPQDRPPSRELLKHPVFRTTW
HUNK, construct: Full length, human, sequence (P57058 whole entry, looked up): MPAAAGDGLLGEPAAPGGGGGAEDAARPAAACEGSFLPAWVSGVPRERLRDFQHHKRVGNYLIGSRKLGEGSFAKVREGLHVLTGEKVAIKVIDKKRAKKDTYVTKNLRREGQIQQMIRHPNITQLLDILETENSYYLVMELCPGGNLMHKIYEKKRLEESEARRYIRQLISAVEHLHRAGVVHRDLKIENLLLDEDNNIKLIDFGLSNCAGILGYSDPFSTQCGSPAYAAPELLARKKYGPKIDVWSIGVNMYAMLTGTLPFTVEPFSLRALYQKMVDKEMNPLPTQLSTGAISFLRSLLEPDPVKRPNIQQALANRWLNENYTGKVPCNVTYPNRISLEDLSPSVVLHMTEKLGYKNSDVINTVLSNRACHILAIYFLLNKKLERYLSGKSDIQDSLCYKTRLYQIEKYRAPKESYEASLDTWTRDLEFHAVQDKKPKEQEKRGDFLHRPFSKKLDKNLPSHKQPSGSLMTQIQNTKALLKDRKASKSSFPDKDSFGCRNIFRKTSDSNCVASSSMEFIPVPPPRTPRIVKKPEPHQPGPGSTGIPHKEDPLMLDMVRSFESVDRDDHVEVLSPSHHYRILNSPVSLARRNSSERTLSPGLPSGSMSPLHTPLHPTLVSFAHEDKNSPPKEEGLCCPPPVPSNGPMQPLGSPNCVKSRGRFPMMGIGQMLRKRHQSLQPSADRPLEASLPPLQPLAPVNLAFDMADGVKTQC
MAP2K5, construct: Full length, human, sequence (Q13163 whole entry, looked up): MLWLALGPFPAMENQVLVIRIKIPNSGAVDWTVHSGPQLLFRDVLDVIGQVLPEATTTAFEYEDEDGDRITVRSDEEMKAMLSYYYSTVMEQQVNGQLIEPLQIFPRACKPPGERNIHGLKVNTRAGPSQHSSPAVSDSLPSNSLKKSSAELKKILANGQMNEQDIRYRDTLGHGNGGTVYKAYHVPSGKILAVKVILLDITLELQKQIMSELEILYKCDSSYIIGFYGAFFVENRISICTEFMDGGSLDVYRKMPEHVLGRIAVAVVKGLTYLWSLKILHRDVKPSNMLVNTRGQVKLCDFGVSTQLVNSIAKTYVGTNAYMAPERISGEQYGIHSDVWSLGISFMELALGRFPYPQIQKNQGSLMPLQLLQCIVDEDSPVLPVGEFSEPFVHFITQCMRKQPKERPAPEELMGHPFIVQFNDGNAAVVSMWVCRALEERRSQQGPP

HUNK, construct: Full length, human (from UniProt P57058)
relative phosphorylation
Conditions | at +1 | at +2 | at +3 | at +4 | at -1 | at -2 | at -3 | at -4 | at -5
A fixed | 1.03 | 1.5 | 0.679 | 0.686 | 1.56 | 1.41 | 1.16 | 1.13 | 1.27
D fixed | 0.435 | 0.428 | 2.19 | 1.05 | 0.948 | 0.95 | 0.524 | 0.889 | 0.9
E fixed | 0.527 | 0.447 | 1.01 | 0.957 | 1.04 | 0.921 | 0.728 | 1.19 | 0.832
F fixed | 1.58 | 0.842 | 1.37 | 1.85 | 0.461 | 0.831 | 0.927 | 0.798 | 0.759
G fixed | 0.784 | 0.624 | 0.66 | 0.751 | 1.03 | 0.896 | 1.07 | 1.15 | 1.37
H fixed | 0.814 | 1.65 | 1.04 | 0.811 | 0.795 | 1.05 | 1.97 | 0.947 | 1.09
I fixed | 0.538 | 1.44 | 0.61 | 1.72 | 0.555 | 1 | 0.798 | 0.942 | 0.953
K fixed | 0.713 | 0.591 | 0.493 | 0.609 | 1.38 | 0.725 | 0.726 | 1.02 | 1.23
L fixed | 0.882 | 0.747 | 0.704 | 1.39 | 0.571 | 0.867 | 1.19 | 1.39 | 0.947
M fixed | 1.81 | 0.549 | 0.945 | 1.71 | 1.01 | 0.946 | 1.3 | 1.04 | 0.811
N fixed | 0.794 | 0.829 | 1.85 | 0.873 | 1.11 | 1.28 | 0.675 | 0.993 | 1.03
P fixed | 0.301 | 0.355 | 0.287 | 0.64 | 1.06 | 0.395 | 0.961 | 0.786 | 0.917
Q fixed | 1.73 | 0.582 | 0.661 | 0.712 | 1.17 | 1.3 | 0.749 | 0.797 | 0.725
R fixed | 1.01 | 0.814 | 0.766 | 0.758 | 2.41 | 1.44 | 1.35 | 0.963 | 1.3
V fixed | 0.701 | 2.16 | 0.599 | 0.735 | 0.576 | 1.25 | 0.559 | 0.833 | 0.842
W fixed | 1.49 | 1.7 | 2.1 | 0.853 | 0.626 | 0.916 | 0.991 | 1.15 | 0.943
Y fixed | 1.87 | 1.74 | 1.03 | 0.903 | 0.694 | 0.806 | 1.32 | 0.987 | 1.08
pThr fixed | 1.16 | 1.58 | 0.532 | 0.85 | 0.689 | 1.65 | 0.827 | 0.821 | 0.727
pTyr fixed | 0.97 | 1.71 | 0.92 | 0.972 | 0.873 | 0.669 | 0.897 | 0.783 | 0.806

MAP2K5, construct: Full length, human (from UniProt Q13163)
relative phosphorylation
Conditions | at +1 | at +2 | at +3 | at +4 | at -1 | at -2 | at -3 | at -4 | at -5
A fixed | 0.719 | 0.806 | 0.742 | 0.876 | 0.985 | 1.01 | 1.02 | 0.982 | 0.924
D fixed | 0.453 | 0.477 | 0.592 | 0.598 | 0.918 | 0.931 | 0.998 | 0.992 | 0.898
E fixed | 0.47 | 0.454 | 0.583 | 0.62 | 0.73 | 0.732 | 0.889 | 0.982 | 0.828
F fixed | 1.12 | 0.912 | 1.29 | 0.97 | 0.899 | 1.75 | 0.962 | 1.08 | 1.2
G fixed | 0.703 | 0.748 | 0.949 | 0.998 | 1.19 | 0.942 | 1.16 | 1.08 | 0.963
H fixed | 0.886 | 2.3 | 1.1 | 1.07 | 1.15 | 1.01 | 1.02 | 1.09 | 1.17
I fixed | 1.52 | 0.717 | 0.919 | 0.898 | 0.706 | 0.696 | 0.744 | 0.74 | 0.856
K fixed | 0.872 | 1.29 | 1.14 | 1.49 | 1.14 | 0.83 | 1.08 | 1.11 | 1.09
L fixed | 1.2 | 0.711 | 1.01 | 0.836 | 1.07 | 0.841 | 0.846 | 0.783 | 0.884
M fixed | 1.62 | 0.928 | 1.06 | 0.956 | 1.11 | 0.866 | 0.943 | 0.944 | 0.889
N fixed | 0.836 | 0.935 | 0.963 | 0.891 | 1.08 | 0.855 | 0.906 | 0.947 | 0.894
P fixed | 0.636 | 0.604 | 0.714 | 1.06 | 0.809 | 0.901 | 1.07 | 0.902 | 0.894
Q fixed | 0.839 | 0.918 | 0.854 | 1.09 | 0.969 | 0.841 | 0.817 | 0.834 | 0.828
R fixed | 1.1 | 1.53 | 1.36 | 1.43 | 1.5 | 1.23 | 1.54 | 1.24 | 1.19
V fixed | 1.2 | 0.736 | 0.781 | 0.774 | 0.711 | 0.771 | 0.684 | 0.791 | 0.843
W fixed | 1.7 | 1.36 | 1.64 | 1.24 | 0.875 | 1.37 | 1.18 | 1.38 | 1.34
Y fixed | 1.14 | 1.57 | 1.3 | 1.21 | 1.17 | 1.43 | 1.14 | 1.12 | 1.32
pThr fixed | 0.902 | 0.728 | 0.733 | 0.792 | 0.844 | 1.07 | 1.34 | 1.17 | 1.29
pTyr fixed | 0.576 | 0.485 | 0.723 | 0.57 | 0.974 | 1.3 | 1.08 | 0.835 | 1.08

MAP3K1, construct: aa1174-end, human (from UniProt Q13233)
relative phosphorylation
Conditions | at +1 | at +2 | at +3 | at +4 | at -1 | at -2 | at -3 | at -4 | at -5
A fixed | 0.537 | 1.1 | 0.749 | 0.741 | 0.7 | 1.08 | 1.07 | 1.01 | 1.04
D fixed | 0.324 | 0.73 | 0.46 | 0.814 | 1.35 | 1.11 | 1.04 | 1.21 | 1.21
E fixed | 0.309 | 0.439 | 0.395 | 0.711 | 0.98 | 0.858 | 1.14 | 1.08 | 1.23
F fixed | 1.12 | 0.619 | 1.17 | 0.878 | 0.741 | 1.01 | 0.862 | 1.06 | 0.837
G fixed | 0.785 | 0.9 | 0.977 | 1.14 | 1.22 | 1.31 | 1.44 | 1.33 | 1.67
H fixed | 0.853 | 1.27 | 1.03 | 1.23 | 1.89 | 1.33 | 1.19 | 1.17 | 1.19
I fixed | 2.35 | 0.826 | 1.35 | 1.13 | 0.522 | 0.69 | 0.849 | 0.721 | 0.812
K fixed | 0.593 | 1.57 | 0.996 | 1.04 | 0.791 | 0.644 | 0.659 | 0.899 | 0.897
L fixed | 1.31 | 0.49 | 1.35 | 0.914 | 0.711 | 1.03 | 0.772 | 0.715 | 0.565
M fixed | 1.88 | 1.03 | 1.46 | 1.1 | 1.23 | 1.29 | 1.16 | 0.793 | 0.832
N fixed | 0.688 | 1.38 | 0.727 | 1.02 | 1.57 | 1.26 | 0.989 | 0.996 | 1.09
P fixed | 0.343 | 0.583 | 0.773 | 0.923 | 0.893 | 0.839 | 1.13 | 0.952 | 1.07
Q fixed | 0.963 | 0.825 | 0.725 | 0.823 | 1.09 | 1.03 | 0.78 | 0.838 | 0.761
R fixed | 0.837 | 2.5 | 1.24 | 1.6 | 1.38 | 0.832 | 0.857 | 0.954 | 1.17
V fixed | 1.77 | 0.777 | 0.812 | 0.66 | 0.479 | 0.581 | 0.639 | 0.735 | 0.65
W fixed | 1.19 | 0.798 | 1.41 | 1.19 | 0.599 | 0.943 | 1.27 | 1.54 | 0.897
Y fixed | 1.15 | 1.17 | 1.36 | 1.08 | 0.855 | 1.16 | 1.15 | 0.982 | 1.09
pThr fixed | 0.504 | 0.403 | 0.516 | 0.644 | 0.679 | 0.909 | 1.05 | 0.952 | 1.05
pTyr fixed | 0.495 | 0.368 | 0.623 | 0.696 | 0.796 | 0.796 | 1.22 | 0.824 | 1.36

MAP3K14, construct: aa327-673, human (from UniProt Q99558)
relative phosphorylation
Conditions | at +1 | at +2 | at +3 | at +4 | at -1 | at -2 | at -3 | at -4 | at -5
A fixed | 0.858 | 0.835 | 0.87 | 0.88 | 0.975 | 1.06 | 0.893 | 1 | 0.972
D fixed | 0.726 | 0.707 | 0.858 | 0.865 | 0.8 | 0.709 | 0.687 | 0.783 | 0.764
E fixed | 0.775 | 0.682 | 0.769 | 0.786 | 0.755 | 0.73 | 0.705 | 0.877 | 0.735
F fixed | 1.21 | 0.85 | 0.978 | 0.96 | 0.787 | 0.923 | 0.751 | 0.89 | 1.04
G fixed | 0.867 | 0.83 | 0.956 | 1.04 | 1.09 | 1.01 | 0.925 | 1.02 | 0.917
H fixed | 0.973 | 1.15 | 1.11 | 1.04 | 1.16 | 1.08 | 1.08 | 1.06 | 1.05
I fixed | 1 | 0.886 | 0.795 | 0.924 | 0.66 | 0.713 | 0.64 | 0.804 | 0.879
K fixed | 1.08 | 1.68 | 1.36 | 1.36 | 1.49 | 1.19 | 1.92 | 1.53 | 1.38
L fixed | 1.09 | 0.908 | 0.971 | 1.02 | 0.874 | 0.78 | 0.731 | 0.896 | 1.23
M fixed | 1.26 | 0.844 | 0.875 | 0.962 | 0.966 | 1.02 | 0.753 | 0.977 | 1.04
N fixed | 0.909 | 0.978 | 1.18 | 1.09 | 1.19 | 0.954 | 0.904 | 1.02 | 0.911
P fixed | 0.69 | 0.817 | 0.935 | 1.25 | 1.02 | 0.763 | 0.843 | 0.924 | 1.05
Q fixed | 1.09 | 0.918 | 0.979 | 1.06 | 1.04 | 1.18 | 0.97 | 1.03 | 0.921
R fixed | 1.2 | 2.11 | 1.49 | 1.23 | 1.63 | 1.94 | 2.81 | 1.49 | 1.43
V fixed | 0.988 | 0.892 | 0.81 | 0.866 | 0.687 | 0.76 | 0.652 | 0.843 | 0.808
W fixed | 1.21 | 0.909 | 1.09 | 0.827 | 0.814 | 1.12 | 0.939 | 0.938 | 0.945
Y fixed | 1.06 | 0.998 | 0.983 | 0.841 | 1.07 | 1.07 | 0.793 | 0.931 | 0.921
pThr fixed | 0.918 | 0.837 | 0.843 | 0.923 | 0.678 | 0.769 | 0.827 | 0.899 | 0.877
pTyr fixed | 0.869 | 0.849 | 0.889 | 0.774 | 0.829 | 0.824 | 1.01 | 0.941 | 0.985
